From the supplement of paper PMC6757056
± gives the standard deviation of the averaged measurements.

B1: library; a variant is named by its letters at N, in order (parent)
chain: GCUGUCACCGGUGUAUUACCCUAGUGGUCGACCGGUCUGAUGAGUCUNNNNNNAGACGAAACAGC

How the values were obtained:
hypoxanthine [1] = variants of: B1; assay: normalized RNA/DNA level with ligand (relative to sTRSVctl = 100) (log10 (% of sTRSVctl)); ligand: hypoxanthine (xanthine aptamer); higher = less ribozyme self-cleavage, higher mRNA level; conditions: ligand concentration (+) RNA-Seq: 5 mM, HEK293T, reporter: mCherry (pCS4076), ligand present: yes
In short: (§1)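 For each 6-well well, 4 µg of library plasmid encoding mCherry-linked ribozyme switches, or eGFP-linked ones in some ligand experiments, was transfected into HEK293T. Any ligand was added 1 h before transfection, and RNA was extracted with EDTA 72 h after it, then reverse-transcribed, amplified, barcoded and sequenced. RNA level was obtained by dividing RNA reads by DNA reads, normalizing to a spiked-in non-cleaving sequence or to the top sequences, then scaling and log-transforming. The top set was 25 sequences, scaling was ×100 with log10, and ≥100 DNA reads were required.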

hypoxanthine [2] = variants of: B1; assay: normalized RNA/DNA level without ligand (relative to sTRSVctl = 100) (log10 (% of sTRSVctl)); ligand: hypoxanthine (xanthine aptamer); higher = less ribozyme self-cleavage, higher mRNA level; conditions: HEK293T, reporter: mCherry (pCS4076), ligand present: no
In short: as §1

UGUUCU
normalized RNA/DNA level with ligand (log10) (hypoxanthine [1]): 1.93 ± 0.058 | normalized RNA/DNA level without ligand (log10) (hypoxanthine [2]): 1.97 ± 0.051

AGUUCU
normalized RNA/DNA level with ligand (log10) (hypoxanthine [1]): 1.8964 ± 0.00099 | normalized RNA/DNA level without ligand (log10) (hypoxanthine [2]): 1.86 ± 0.056

CGUUGA
normalized RNA/DNA level with ligand (log10) (hypoxanthine [1]): 1.96 ± 0.024 | normalized RNA/DNA level without ligand (log10) (hypoxanthine [2]): 1.834 ± 0.014

GGUUGA
normalized RNA/DNA level with ligand (log10) (hypoxanthine [1]): 1.94 ± 0.046 | normalized RNA/DNA level without ligand (log10) (hypoxanthine [2]): 1.64 ± 0.021

UGUUGA
normalized RNA/DNA level with ligand (log10) (hypoxanthine [1]): 1.9 ± 0.021 | normalized RNA/DNA level without ligand (log10) (hypoxanthine [2]): 1.674 ± 0.0081

AGUUGA
normalized RNA/DNA level with ligand (log10) (hypoxanthine [1]): 1.915 ± 0.0047 | normalized RNA/DNA level without ligand (log10) (hypoxanthine [2]): 1.63 ± 0.032

CGUUGC
normalized RNA/DNA level with ligand (log10) (hypoxanthine [1]): 1.96 ± 0.1 | normalized RNA/DNA level without ligand (log10) (hypoxanthine [2]): 1.91 ± 0.088

UGUUGC
normalized RNA/DNA level with ligand (log10) (hypoxanthine [1]): 1.943 ± 0.015 | normalized RNA/DNA level without ligand (log10) (hypoxanthine [2]): 1.87 ± 0.051

UGUUGG
normalized RNA/DNA level with ligand (log10) (hypoxanthine [1]): 1.91 ± 0.058 | normalized RNA/DNA level without ligand (log10) (hypoxanthine [2]): 1.53 ± 0.04

CGUUGU
normalized RNA/DNA level with ligand (log10) (hypoxanthine [1]): 1.98 ± 0.05 | normalized RNA/DNA level without ligand (log10) (hypoxanthine [2]): 1.89 ± 0.059

GGUUGU
normalized RNA/DNA level with ligand (log10) (hypoxanthine [1]): 1.94 ± 0.065 | normalized RNA/DNA level without ligand (log10) (hypoxanthine [2]): 1.76 ± 0.035

AGUUGU
normalized RNA/DNA level with ligand (log10) (hypoxanthine [1]): 1.93 ± 0.043 | normalized RNA/DNA level without ligand (log10) (hypoxanthine [2]): 1.63 ± 0.076

CGUUUA
normalized RNA/DNA level with ligand (log10) (hypoxanthine [1]): 1.89 ± 0.032 | normalized RNA/DNA level without ligand (log10) (hypoxanthine [2]): 1.68 ± 0.013

UGUUUA
normalized RNA/DNA level with ligand (log10) (hypoxanthine [1]): 1.942 ± 0.0063 | normalized RNA/DNA level without ligand (log10) (hypoxanthine [2]): 1.88 ± 0.035

GGUUUC
normalized RNA/DNA level with ligand (log10) (hypoxanthine [1]): 1.946 ± 0.011 | normalized RNA/DNA level without ligand (log10) (hypoxanthine [2]): 1.916 ± 0.0058

UGUUUC
normalized RNA/DNA level with ligand (log10) (hypoxanthine [1]): 1.98 ± 0.071 | normalized RNA/DNA level without ligand (log10) (hypoxanthine [2]): 2.02 ± 0.047

AGUUUC
normalized RNA/DNA level with ligand (log10) (hypoxanthine [1]): 1.92 ± 0.033 | normalized RNA/DNA level without ligand (log10) (hypoxanthine [2]): 1.93 ± 0.033

CGUUUG
normalized RNA/DNA level with ligand (log10) (hypoxanthine [1]): 1.96 ± 0.067 | normalized RNA/DNA level without ligand (log10) (hypoxanthine [2]): 1.864 ± 0.0052

AGUUUG
normalized RNA/DNA level with ligand (log10) (hypoxanthine [1]): 1.89 ± 0.077 | normalized RNA/DNA level without ligand (log10) (hypoxanthine [2]): 1.55 ± 0.035

CGUUUU
normalized RNA/DNA level with ligand (log10) (hypoxanthine [1]): 1.92 ± 0.073 | normalized RNA/DNA level without ligand (log10) (hypoxanthine [2]): 1.833 ± 0.014

UGUUUU
normalized RNA/DNA level with ligand (log10) (hypoxanthine [1]): 1.97 ± 0.069 | normalized RNA/DNA level without ligand (log10) (hypoxanthine [2]): 1.888 ± 0.011

AGUUUU
normalized RNA/DNA level with ligand (log10) (hypoxanthine [1]): 1.97 ± 0.077 | normalized RNA/DNA level without ligand (log10) (hypoxanthine [2]): 1.947 ± 0.013

CUAAAA
normalized RNA/DNA level with ligand (log10) (hypoxanthine [1]): 1.88 ± 0.032 | normalized RNA/DNA level without ligand (log10) (hypoxanthine [2]): 1.813 ± 0.0042

AUAAAA
normalized RNA/DNA level with ligand (log10) (hypoxanthine [1]): 1.88 ± 0.031 | normalized RNA/DNA level without ligand (log10) (hypoxanthine [2]): 1.8 ± 0.04

UUAAAC
normalized RNA/DNA level with ligand (log10) (hypoxanthine [1]): 1.915 ± 0.008 | normalized RNA/DNA level without ligand (log10) (hypoxanthine [2]): 1.791 ± 0.01

CUAAAG
normalized RNA/DNA level with ligand (log10) (hypoxanthine [1]): 1.92 ± 0.051 | normalized RNA/DNA level without ligand (log10) (hypoxanthine [2]): 1.67 ± 0.013

CUAAAU
normalized RNA/DNA level with ligand (log10) (hypoxanthine [1]): 1.883 ± 0.01 | normalized RNA/DNA level without ligand (log10) (hypoxanthine [2]): 1.82 ± 0.03

CUAACA
normalized RNA/DNA level with ligand (log10) (hypoxanthine [1]): 1.88 ± 0.069 | normalized RNA/DNA level without ligand (log10) (hypoxanthine [2]): 1.84 ± 0.031

GUAACA
normalized RNA/DNA level with ligand (log10) (hypoxanthine [1]): 1.89 ± 0.0062 | normalized RNA/DNA level without ligand (log10) (hypoxanthine [2]): 1.8412 ± 0.00038

UUAACA
normalized RNA/DNA level with ligand (log10) (hypoxanthine [1]): 1.93 ± 0.059 | normalized RNA/DNA level without ligand (log10) (hypoxanthine [2]): 1.9 ± 0.0046

CUAACC
normalized RNA/DNA level with ligand (log10) (hypoxanthine [1]): 1.91 ± 0.051 | normalized RNA/DNA level without ligand (log10) (hypoxanthine [2]): 1.83 ± 0.038

GUAACC
normalized RNA/DNA level with ligand (log10) (hypoxanthine [1]): 1.9577 ± 0.00079 | normalized RNA/DNA level without ligand (log10) (hypoxanthine [2]): 1.88 ± 0.089

UUAACC
normalized RNA/DNA level with ligand (log10) (hypoxanthine [1]): 1.941 ± 0.0056 | normalized RNA/DNA level without ligand (log10) (hypoxanthine [2]): 1.921 ± 0.0067

AUAACC
normalized RNA/DNA level with ligand (log10) (hypoxanthine [1]): 1.943 ± 0.0094 | normalized RNA/DNA level without ligand (log10) (hypoxanthine [2]): 1.8816 ± 0.0015

CUAACG
normalized RNA/DNA level with ligand (log10) (hypoxanthine [1]): 1.923 ± 0.017 | normalized RNA/DNA level without ligand (log10) (hypoxanthine [2]): 1.88 ± 0.033

AUAACG
normalized RNA/DNA level with ligand (log10) (hypoxanthine [1]): 1.87 ± 0.062 | normalized RNA/DNA level without ligand (log10) (hypoxanthine [2]): 1.43 ± 0.11

CUAACU
normalized RNA/DNA level with ligand (log10) (hypoxanthine [1]): 1.92 ± 0.033 | normalized RNA/DNA level without ligand (log10) (hypoxanthine [2]): 1.869 ± 0.0023

GUAACU
normalized RNA/DNA level with ligand (log10) (hypoxanthine [1]): 1.94 ± 0.03 | normalized RNA/DNA level without ligand (log10) (hypoxanthine [2]): 1.878 ± 0.005

UUAACU
normalized RNA/DNA level with ligand (log10) (hypoxanthine [1]): 1.932 ± 0.017 | normalized RNA/DNA level without ligand (log10) (hypoxanthine [2]): 1.841 ± 0.012

AUAACU
normalized RNA/DNA level with ligand (log10) (hypoxanthine [1]): 1.93 ± 0.034 | normalized RNA/DNA level without ligand (log10) (hypoxanthine [2]): 1.88 ± 0.027

CUAAGA
normalized RNA/DNA level with ligand (log10) (hypoxanthine [1]): 1.947 ± 0.013 | normalized RNA/DNA level without ligand (log10) (hypoxanthine [2]): 1.838 ± 0.011

UUAAGC
normalized RNA/DNA level with ligand (log10) (hypoxanthine [1]): 1.94 ± 0.023 | normalized RNA/DNA level without ligand (log10) (hypoxanthine [2]): 1.837 ± 0.0055

CUAAGG
normalized RNA/DNA level with ligand (log10) (hypoxanthine [1]): 1.91 ± 0.032 | normalized RNA/DNA level without ligand (log10) (hypoxanthine [2]): 1.75 ± 0.046

GUAAGU
normalized RNA/DNA level with ligand (log10) (hypoxanthine [1]): 1.94 ± 0.039 | normalized RNA/DNA level without ligand (log10) (hypoxanthine [2]): 1.79 ± 0.019

UUAAGU
normalized RNA/DNA level with ligand (log10) (hypoxanthine [1]): 1.936 ± 0.0026 | normalized RNA/DNA level without ligand (log10) (hypoxanthine [2]): 1.847 ± 0.0087

CUAAUA
normalized RNA/DNA level with ligand (log10) (hypoxanthine [1]): 1.87 ± 0.029 | normalized RNA/DNA level without ligand (log10) (hypoxanthine [2]): 1.79 ± 0.026

GUAAUA
normalized RNA/DNA level with ligand (log10) (hypoxanthine [1]): 1.878 ± 0.0069 | normalized RNA/DNA level without ligand (log10) (hypoxanthine [2]): 1.823 ± 0.0023

UUAAUC
normalized RNA/DNA level with ligand (log10) (hypoxanthine [1]): 1.95 ± 0.017 | normalized RNA/DNA level without ligand (log10) (hypoxanthine [2]): 1.96 ± 0.058

AUAAUC
normalized RNA/DNA level with ligand (log10) (hypoxanthine [1]): 1.939 ± 0.0048 | normalized RNA/DNA level without ligand (log10) (hypoxanthine [2]): 1.884 ± 0.0055

UUAAUG
normalized RNA/DNA level with ligand (log10) (hypoxanthine [1]): 1.886 ± 0.0055 | normalized RNA/DNA level without ligand (log10) (hypoxanthine [2]): 1.737 ± 0.0081

CUAAUU
normalized RNA/DNA level with ligand (log10) (hypoxanthine [1]): 1.94 ± 0.043 | normalized RNA/DNA level without ligand (log10) (hypoxanthine [2]): 1.869 ± 0.006

UUAAUU
normalized RNA/DNA level with ligand (log10) (hypoxanthine [1]): 1.94 ± 0.041 | normalized RNA/DNA level without ligand (log10) (hypoxanthine [2]): 1.84 ± 0.041

UUACAA
normalized RNA/DNA level with ligand (log10) (hypoxanthine [1]): 1.96 ± 0.022 | normalized RNA/DNA level without ligand (log10) (hypoxanthine [2]): 1.796 ± 0.012

CUACAC
normalized RNA/DNA level with ligand (log10) (hypoxanthine [1]): 1.91 ± 0.026 | normalized RNA/DNA level without ligand (log10) (hypoxanthine [2]): 1.77 ± 0.029

GUACAC
normalized RNA/DNA level with ligand (log10) (hypoxanthine [1]): 1.919 ± 0.0031 | normalized RNA/DNA level without ligand (log10) (hypoxanthine [2]): 1.79 ± 0.041

CUACAG
normalized RNA/DNA level with ligand (log10) (hypoxanthine [1]): 1.91 ± 0.028 | normalized RNA/DNA level without ligand (log10) (hypoxanthine [2]): 1.73 ± 0.039

UUACAG
normalized RNA/DNA level with ligand (log10) (hypoxanthine [1]): 1.92 ± 0.029 | normalized RNA/DNA level without ligand (log10) (hypoxanthine [2]): 1.63 ± 0.036

CUACAU
normalized RNA/DNA level with ligand (log10) (hypoxanthine [1]): 1.95 ± 0.075 | normalized RNA/DNA level without ligand (log10) (hypoxanthine [2]): 1.7979 ± 0.00079
